According to patent publication US12692294B2, “Engineered NRG-1 variants with improved selectivity toward ErbB4 but not against ErbB3” (Amgen Inc., priority 2021, dated 2026):
Where “and” joins values, the source holds several entries; their conditions need not be identical. Equal entries are not always repeated.

Legend:
ErbB3 = target: T1, ErbB3 (Rattus norvegicus, UniProt Q62799); assay: In vitro phosphorylation of Akt in rat Schwann cells; assay type: cell-based; settings: Akt (Serine 473) phosphorylation, 15 minutes treatment, read-out: Schwann cells (SC) (ErbB3) Avg EC50
T1 construct: forming the ErbB2/ErbB4 complex in cardiomyocytes and the ErbB2/ErbB3 complex in Schwann cells; endogenous in cells; host or cells: rat Schwann cells
Method: (§1) In Vitro Phosphorylation of Akt in Neonatal Rat Cardiomyocytes and Rat Schwann Cells by Neuregulin Variants
(§2) Specificity of neuregulin variants towards cardiomyocytes (ErbB4) versus Schwann cells (ErbB3) was tested by measuring Akt activity generated by formation of the ErbB2/ErbB4 and ErbB2/ErbB3 complexes. Upon activation by neuregulin, the ErbB4 and ErbB3 receptors dimerize preferentially with the ErbB2 co-receptor, forming the ErbB2/ErbB4 complex in cardiomyocytes and the ErbB2/ErbB3 complex in Schwann cells, both of which signal through the Akt pathway. Neonatal rat cardiomyocytes were isolated from hearts of Sprague Dawley rat pups at 0 to 4 days old according to manufacturer's protocol using the Neomyt kit and plated on Surecoat plates in NS media containing serum (all from Cellultron Life Technologies, Baltimore, MD). Rat Schwann cells were plated in Poly-D-Lysine coated plates with Dulbecco's modified Eagle's media (DMEM) supplemented with fetal bovine serum (Thermo Fisher) and forskolin (Millipore Sigma).
(§3) After a 24-hour incubation in a humidified incubator maintained at 37° C. and 5% CO2, cardiomyocytes and Schwann cells were washed with serum free media and incubated an additional 16 hours in DMEM supplemented with bovine serum albumin (Sigma). Both cell lines were then treated with titrations of the neuregulin variant molecules for 15 minutes, upon which cells were lysed in lysis buffer (Meso Scale Discovery (MSD)). For detection of Akt phosphorylation, lysates were added to the Multi-Spot 96-Well 4-Spot Phospho (Serine 473)/Total Akt plates (MSD), incubated according to the manufacturer's protocol and read in the SECTOR Imager 6000 (MSD). For both cell assays, the percent phosphorylation of Akt was calculated by multiplying the phospho Akt signal by 2, then dividing by the phospho Akt signal added to the total Akt signal and then multiplying by 100. The phosphorylation of Akt data points were fitted using a log (agonist) versus response, variable slope (4 parameters) analysis in GraphPad Prism to generate EC50 curves. The CM % agonism reflect the top value of the data points.

ErbB4 = target: T2, ErbB4 (Rattus norvegicus, UniProt Q62956); assay: In vitro phosphorylation of Akt in neonatal rat cardiomyocytes; assay type: cell-based; settings: for EC50: Akt (Serine 473) phosphorylation, neonatal rat cardiomyocytes, 15 minutes treatment, read-out: Cardiomyocyte (CM) (ErbB4) Avg EC50; for Selectivity SC/CM: ratio of EC50s Schwann cells/cardiomyocytes; for CM % Agonism AVG: top value of the Akt phosphorylation data points in cardiomyocytes, wild-type control 100
T2 construct: forming the ErbB2/ErbB4 complex in cardiomyocytes and the ErbB2/ErbB3 complex in Schwann cells; endogenous in cells; host or cells: primary neonatal rat cardiomyocytes (Sprague Dawley pups, 0 to 4 days old)
Method: as §1, §2, §3

T2 sequence (Q62956 26-1308): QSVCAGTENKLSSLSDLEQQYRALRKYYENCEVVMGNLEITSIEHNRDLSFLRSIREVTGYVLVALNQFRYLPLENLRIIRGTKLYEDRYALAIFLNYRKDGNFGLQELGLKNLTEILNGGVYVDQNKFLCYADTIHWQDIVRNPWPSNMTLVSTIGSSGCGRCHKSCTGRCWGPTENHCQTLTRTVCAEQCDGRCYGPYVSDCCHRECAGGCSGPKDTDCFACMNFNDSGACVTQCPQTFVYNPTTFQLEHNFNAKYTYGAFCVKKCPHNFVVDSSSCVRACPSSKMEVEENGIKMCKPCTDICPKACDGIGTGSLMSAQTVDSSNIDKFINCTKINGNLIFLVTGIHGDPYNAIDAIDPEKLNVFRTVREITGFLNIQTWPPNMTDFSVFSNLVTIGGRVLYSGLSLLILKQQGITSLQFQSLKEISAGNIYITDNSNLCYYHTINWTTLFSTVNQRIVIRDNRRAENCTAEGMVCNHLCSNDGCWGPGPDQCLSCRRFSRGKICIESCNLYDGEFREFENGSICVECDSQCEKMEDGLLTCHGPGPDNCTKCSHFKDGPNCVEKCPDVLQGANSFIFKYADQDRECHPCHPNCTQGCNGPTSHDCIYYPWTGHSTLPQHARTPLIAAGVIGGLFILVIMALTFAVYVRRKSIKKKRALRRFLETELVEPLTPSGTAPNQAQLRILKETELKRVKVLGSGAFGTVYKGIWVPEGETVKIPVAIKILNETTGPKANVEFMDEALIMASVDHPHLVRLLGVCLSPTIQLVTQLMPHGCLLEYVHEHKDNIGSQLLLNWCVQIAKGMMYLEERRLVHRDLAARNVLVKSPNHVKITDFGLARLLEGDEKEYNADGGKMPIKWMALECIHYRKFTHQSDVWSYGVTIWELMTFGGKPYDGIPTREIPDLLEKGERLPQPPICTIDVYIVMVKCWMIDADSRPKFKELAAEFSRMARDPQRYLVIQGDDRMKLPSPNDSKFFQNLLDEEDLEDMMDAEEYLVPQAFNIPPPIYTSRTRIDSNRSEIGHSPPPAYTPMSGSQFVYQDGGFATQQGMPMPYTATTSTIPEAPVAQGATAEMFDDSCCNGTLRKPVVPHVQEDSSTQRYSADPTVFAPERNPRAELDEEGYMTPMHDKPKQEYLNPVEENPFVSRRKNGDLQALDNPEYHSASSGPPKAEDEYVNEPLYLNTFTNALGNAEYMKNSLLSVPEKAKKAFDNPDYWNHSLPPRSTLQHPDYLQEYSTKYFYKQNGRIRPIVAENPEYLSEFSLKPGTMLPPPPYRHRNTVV
T2 sequence (P06494 23-1257 partner): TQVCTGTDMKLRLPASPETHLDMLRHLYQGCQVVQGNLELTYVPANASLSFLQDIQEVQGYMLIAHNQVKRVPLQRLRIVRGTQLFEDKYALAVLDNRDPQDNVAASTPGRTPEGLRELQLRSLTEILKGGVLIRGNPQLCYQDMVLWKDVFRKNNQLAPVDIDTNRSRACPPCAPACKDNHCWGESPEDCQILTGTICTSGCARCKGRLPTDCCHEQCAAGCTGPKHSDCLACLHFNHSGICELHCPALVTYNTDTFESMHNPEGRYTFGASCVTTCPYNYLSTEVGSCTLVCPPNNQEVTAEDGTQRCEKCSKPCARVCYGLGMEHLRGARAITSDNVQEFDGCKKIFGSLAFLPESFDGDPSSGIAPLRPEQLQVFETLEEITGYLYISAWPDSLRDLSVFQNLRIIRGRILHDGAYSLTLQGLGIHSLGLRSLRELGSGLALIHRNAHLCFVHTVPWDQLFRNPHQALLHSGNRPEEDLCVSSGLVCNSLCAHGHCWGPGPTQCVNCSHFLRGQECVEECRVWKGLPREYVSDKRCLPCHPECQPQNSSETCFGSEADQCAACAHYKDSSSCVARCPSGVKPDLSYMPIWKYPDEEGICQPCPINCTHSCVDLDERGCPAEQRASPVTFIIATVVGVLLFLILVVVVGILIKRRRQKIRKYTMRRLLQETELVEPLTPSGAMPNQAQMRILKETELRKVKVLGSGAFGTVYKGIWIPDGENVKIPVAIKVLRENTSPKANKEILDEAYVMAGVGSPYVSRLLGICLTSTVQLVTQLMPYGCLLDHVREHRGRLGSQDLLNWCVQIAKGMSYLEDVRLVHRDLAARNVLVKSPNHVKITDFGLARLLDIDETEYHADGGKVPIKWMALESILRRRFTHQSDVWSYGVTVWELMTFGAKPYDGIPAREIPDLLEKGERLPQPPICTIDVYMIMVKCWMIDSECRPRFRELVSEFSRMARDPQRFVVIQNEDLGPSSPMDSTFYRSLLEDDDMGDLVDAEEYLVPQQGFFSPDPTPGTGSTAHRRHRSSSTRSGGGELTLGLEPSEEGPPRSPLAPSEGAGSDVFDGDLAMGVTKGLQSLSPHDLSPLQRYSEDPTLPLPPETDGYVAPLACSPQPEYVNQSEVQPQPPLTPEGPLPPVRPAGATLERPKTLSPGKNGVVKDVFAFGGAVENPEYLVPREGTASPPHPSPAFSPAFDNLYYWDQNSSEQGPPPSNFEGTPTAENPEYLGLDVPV
T1 sequence (Q62799 20-1339): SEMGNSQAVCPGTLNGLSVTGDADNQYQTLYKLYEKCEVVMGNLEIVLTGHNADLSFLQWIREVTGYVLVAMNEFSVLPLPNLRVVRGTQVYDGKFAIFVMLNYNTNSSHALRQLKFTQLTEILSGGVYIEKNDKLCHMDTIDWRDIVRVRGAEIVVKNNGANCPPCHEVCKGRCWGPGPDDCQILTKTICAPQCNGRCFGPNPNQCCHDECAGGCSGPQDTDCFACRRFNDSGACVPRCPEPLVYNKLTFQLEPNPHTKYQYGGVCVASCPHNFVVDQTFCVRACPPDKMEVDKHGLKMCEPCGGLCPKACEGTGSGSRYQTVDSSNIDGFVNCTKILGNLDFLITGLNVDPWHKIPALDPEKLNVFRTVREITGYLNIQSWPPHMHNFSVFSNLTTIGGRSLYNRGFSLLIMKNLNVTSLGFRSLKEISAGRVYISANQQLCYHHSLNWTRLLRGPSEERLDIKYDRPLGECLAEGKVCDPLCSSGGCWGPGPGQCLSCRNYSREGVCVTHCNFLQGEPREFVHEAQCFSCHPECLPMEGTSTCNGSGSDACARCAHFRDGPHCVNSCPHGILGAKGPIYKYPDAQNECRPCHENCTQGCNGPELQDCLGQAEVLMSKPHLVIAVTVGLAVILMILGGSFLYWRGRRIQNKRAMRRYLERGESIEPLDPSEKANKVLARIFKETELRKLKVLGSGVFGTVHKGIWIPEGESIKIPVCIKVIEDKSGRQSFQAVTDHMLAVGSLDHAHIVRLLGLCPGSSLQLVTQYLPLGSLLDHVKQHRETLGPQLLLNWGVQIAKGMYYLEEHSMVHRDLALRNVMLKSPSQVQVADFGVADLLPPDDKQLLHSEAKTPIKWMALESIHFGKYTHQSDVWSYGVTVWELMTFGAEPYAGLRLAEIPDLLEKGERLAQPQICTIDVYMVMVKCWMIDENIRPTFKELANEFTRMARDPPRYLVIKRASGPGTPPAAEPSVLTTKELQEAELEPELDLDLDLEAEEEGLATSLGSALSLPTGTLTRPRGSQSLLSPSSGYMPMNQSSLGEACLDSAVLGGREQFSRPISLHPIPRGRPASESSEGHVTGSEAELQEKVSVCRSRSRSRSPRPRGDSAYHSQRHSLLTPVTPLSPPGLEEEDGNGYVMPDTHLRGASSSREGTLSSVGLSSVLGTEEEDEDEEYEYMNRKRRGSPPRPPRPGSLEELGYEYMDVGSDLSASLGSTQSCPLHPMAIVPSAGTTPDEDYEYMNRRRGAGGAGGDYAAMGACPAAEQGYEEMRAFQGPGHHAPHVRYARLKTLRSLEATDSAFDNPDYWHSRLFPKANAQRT
T1 sequence (P06494 23-1257 partner): as the sequence (P06494 23-1257 partner) above

EC50 (ErbB3)	EC50 (ErbB4)	Selectivity SC/CM (ErbB4)	CM % Agonism AVG (ErbB4)	Substance
0.0222 nM	0.084 nM	0.2643	92.6%	huNRG1(S177-S228)(wt)((G4E)2:G4)::huFcSEFL2 (Pb): Fc fusion of wild-type NRG1 fragment S177-S228 [reference compound]
9.33 nM	0.15 nM	62.2	88.5%	huNRG1(S177-F229)(NRGE1D) (E47K_D48L_F49D_M50I) huIgG1z SELF2 Fc: Fc fusion of NRG1 variant SEQ ID NO:127
10000 nM	0.39 nM	>10000	79.5%	huNRG1(S177-F229)(NRGE1D) (E47T_D48S_F49L_M50L) hnIgG1z SELF2 Fc: Fc fusion of NRG1 variant SEQ ID NO:129
0.112 nM and 0.15 nM	–	0.4 and 0.3	Full	huNRG1(S177-Q237)(wt)::GG::huFcSEFL2 (Pb): Fc fusion of wild-type NRG1 fragment S177-Q237 [reference compound]
–	0.34 nM	0.3	–	huNRG1(S177-F229)(wt)::3x(G4Q)::huFcSEFL2 (Pb): Fc fusion of wild-type NRG1 fragment S177-F229 [reference compound]
0.07 nM	0.21 nM	0.3	–	huNRG1(S177-Q237)(wt)::3x(G4Q)::huFcSEFL2 (Pb): Fc fusion of wild-type NRG1 fragment S177-Q237 [reference compound]
10000 nM	0.37 nM	>10000	86.3%	huNRG1(S177-F229)(NRGE1D) (E47S_D48S_F49E_M50L) huIgG1z SELF2 Fc: Fc fusion of NRG1 variant SEQ ID NO:128
10000 nM	0.19 nM	>10000	76%	huNRG1(S177-F229)(NRGE1C) (E47S_D48T_F49R_M50V) huIgG1z SELF2 Fc: Fc fusion of NRG1 variant SEQ ID NO:123
